Reference: the Immune Epitope Database (IEDB)

Biological target: HLA-A*02:01
Test: IEDB peptide-MHC binding, purified MHC/competitive/radioactivity; ≥ and ≤ were set here for values at or beyond the usual limits of such assays
Settings: source organism: Mammarenavirus brazilense

Sequence | IC50
GLLEWIFRAL | 439 nM
MVNHSTYYV | 27 nM
CMVNHSTYYV | 73 nM

Same assay, conditions: source organism: Mammarenavirus choriomeningitidis

Sequence | IC50
SLAADLEKL | 45 nM
ALPHIIDEV | 57 nM

Same assay, conditions: source organism: Mammarenavirus juninense

Sequence | IC50
ALVAVSLIAI | 324 nM
GLFQFFVFLA | 26 nM

Same assay, conditions: source organism: Mammarenavirus lassaense

Sequence | IC50
FVFSTSFYL | 2.5 nM

Same assay, conditions: source organism: Mammarenavirus machupoense

Sequence | IC50
ALTIACMTV | 332 nM
SLIKSTLQV | 248 nM

Same assay, conditions: source organism: Mammarenavirus whitewaterense

Sequence | IC50
CMINDTHFLL | 66 nM
NASYITPYV | 263 nM

Same assay, conditions: source organism: Vaccinia virus WR

Sequence | IC50
DMMSLNLTIV | 2850 nM
SMLGIWFFT | 0.65 nM
ILASIIDYV | 0.61 nM
FIEHLGEGI | 4820 nM
MTFGDIPLV | 0.98 nM
NIVWEKKSLV | 63 nM
NTSWNDTVT | 146 nM
RTCSNWVPL | 4.9 nM
LLEAVYGNI | 864 nM
NLLSKNTFYL | 1.4 nM
ELIKELTTL | 134 nM
FLRYLLFGI | 2.5 nM
KLHLISLLSL | 97 nM
FTFSNVCESV | 2.4 nM
DLLSYYVVYV | 0.45 nM
FIHGGILYA | 8.8 nM
LIMYSVIGV | 0.55 nM
MLLALVALV | 0.42 nM
SLDSLVHLL | 3.3 nM
YQYIFLSFFA | 19 nM
FLIVRLNQCM | 34 nM
ELQKFSFKI | 167 nM
MTPSPFYTV | 6.4 nM
TIDFKLKYFL | 3030 nM
IMFKDDNIIM | 141 nM
FILTAILFFM | 0.12 nM

Sequence | IC50
VLDTTLYAV | 0.6 nM
LVITINYFL | 25 nM
LLISMYCSKT | 1150 nM
SLSSQMTST | 2000 nM
NISTILYFT | 128 nM
ILWFFNAMVL | 11 nM
MLNFSIYSV | 0.15 nM
YLFTFTIYT | 3.3 nM
YLTVSFIDET | 4780 nM
YIIKKNDIV | 2000 nM
IVIGVIILA | 664 nM
PMLYQLLEAV | 1090 nM
VIVIYIFTV | 104 nM
RVNVFETRI | 1960 nM
IVLYNGVNYL | 225 nM
RLSTEERHI | 708 nM
ILRKIFYSV | 126 nM
FLTSVINRV | 2.5 nM
VMTPSPFYT | 2660 nM
GAENIVFNL | 4720 nM
VMDNDDNIL | 719 nM
FQYVSYSNFI | 1450 nM
WLTSILLSL | 1.2 nM
LTNEIYASI | 864 nM
YMSFWCKSI | 26 nM
RLIVLFEVFV | 103 nM

Sequence | IC50
ALWIPDLFM | 0.14 nM
VVMAYVGIKL | 219 nM
CLKDIIDFL | 671 nM
GIAHLLEHL | 3560 nM
RIDKTMKYI | 2660 nM
SMICLSLILA | 101 nM
TMLMFIFTGI | 0.89 nM
YLLPGFVLT | 5.7 nM
FLICHNLRA | 17 nM
ALTNAQFFV | 1.3 nM
GLLDRLYDL | 0.13 nM
GTGYYKYFI | 1650 nM
LTFWQIDYL | 7.3 nM
FIVVATAAV | 7 nM
CMAFTIPSI | 0.9 nM
FLLRSIIVA | 3.1 nM
SLLDEDSKI | 99 nM
KLVDICDRIV | 32 nM
FLIVSLCPT | 1.5 nM
YTINCLLYI | 5.1 nM
GIKSVVVPI | 869 nM
CTANSWNVI | 794 nM
AIMESDSFL | 173 nM
YANNDKFRL | 587 nM
FMYFCEQKL | 1.9 nM
FVARVFLGL | 19 nM

Sequence | IC50
RTSQKGTVA | 765 nM
FLHTTFIDV | 0.46 nM
FLLFLEITYT | 6.9 nM
YIIRYPVKRI | 1020 nM
LVVDNGELM | 3600 nM
FLPIIFDAFL | 0.22 nM
GLFIYIPGT | 19 nM
ILSLFLISLV | 2.9 nM
LLFFLALSI | 26 nM
KLTDKKTFII | 4390 nM
YTIERIFNA | 0.56 nM
AVLLTYFCFV | 3.4 nM
SLEATYHIII | 4980 nM
KLVDICDRI | 6.9 nM
FIISVISLV | 0.91 nM
IVMDNDDNI | 445 nM
ILSNYVKTL | 313 nM
NMQTVKLFV | 12 nM
ELMYIFAAL | 108 nM
RTNEEFDPV | 140 nM
ILSAVAIFCI | 13 nM
NVDSTDELM | 1940 nM
FLIPKGFYA | 0.82 nM
KLITFLFVI | 15 nM
AIFTDASTV | 697 nM
NQLYLTVSFI | 520 nM

Sequence | IC50
SMTENVEEDL | 755 nM
YLFDYPHFEA | 0.085 nM
FIDSNEYEV | 0.98 nM
HLPTMYDGL | 1090 nM
FAALGGSVNI | 3730 nM
YLLSLFSTLV | 0.32 nM
NIYLNFPWL | 1210 nM
HLEWLLGFI | 173 nM
STIDGRIVTL | 736 nM
LMDSIFVST | 0.72 nM
TIDGRIVTL | 2170 nM
AIIGLCAYA | 81 nM
LTVLGLGLSL | 1930 nM
MLFVNDLMTM | 51 nM
YLMDEEVPA | 13 nM
IIDREVVANV | 63 nM
VLYNGVNYL | 0.25 nM
STYWVIPWEL | 76 nM
YTALHYYYL | 17 nM
SQSERDNYI | 1190 nM
RVIGLCIRI | 17 nM
SLEATYHII | 762 nM
LITWLIDYV | 71 nM
MLLHVGIPL | 1.4 nM
HIFYQLANV | 5.8 nM
YLSAKITTL | 5.5 nM

Sequence | IC50
KLMGTITLNA | 12 nM
MIYGLIACL | 8.5 nM
YQLFSDAKA | 1790 nM
WLYGYNFII | 0.19 nM
YQLAGYILT | 16 nM
YMDLSYHGV | 1.1 nM
ITNGYLISI | 54 nM
EATYHIIIVA | 2120 nM
FVADRLISEL | 1880 nM
FIILLLAIV | 596 nM
RQIFIHYSV | 0.65 nM
PLLFILFYFA | 42 nM
RTVIHLEWL | 514 nM
FMMVLPGAA | 6.7 nM
SLDVINYLI | 0.55 nM
VVTLLCVLPA | 262 nM
IILLFDFSI | 162 nM
FIGYMVKNV | 443 nM
SQYYFSMLV | 13 nM
NIIDWQFAI | 5.4 nM
IMEYHLLFA | 13 nM
FVFILTAIL | 4.1 nM
ILTREMGFL | 2280 nM
YINTHNEVGI | 1640 nM
FIKGFLYHT | 1320 nM
ILPCPQINTL | 1380 nM

Sequence | IC50
RLYDLTRYA | 4 nM
LQISQCQRI | 1370 nM
RLFSYNFTT | 0.23 nM
SISVVFSTNL | 2890 nM
YTDEVYDYL | 21 nM
ILMIFISSFL | 22 nM
CIDGKWNPV | 8.3 nM
QLVWENFLA | 22 nM
ALAKNASEL | 73 nM
AVKDKNWTV | 1810 nM
PAVVYSTCTV | 2310 nM
FLEGALIANI | 30 nM
ALGGSVNIWA | 1160 nM
QLVDAIDNI | 154 nM
SLTNEIYASI | 161 nM
KTIIDPDFV | 346 nM
VTMVDKPTEL | 3360 nM
TINNLKMML | 193 nM
IVFNLPVSKV | 53 nM
LLYAHINAL | 8.3 nM
VLPAVVYST | 113 nM
GLIKKPYRSI | 848 nM
NIWAIIPLSA | 87 nM
